Laboratory results: patent EP4676971A2 (dated 2026)
Values joined by “and” are separate entries in the source; they are usually repeats but may differ in a detail not shown here. Equal entries are not always repeated.

T1: TNFSF6 (FasL) (UniProt P48023 134-281, limits assumed)
T1 sequence (looked up): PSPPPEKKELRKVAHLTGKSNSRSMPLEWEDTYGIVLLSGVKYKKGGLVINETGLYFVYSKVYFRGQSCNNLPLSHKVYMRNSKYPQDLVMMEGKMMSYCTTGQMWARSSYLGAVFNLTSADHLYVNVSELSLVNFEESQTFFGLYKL

T2: cynomolgus monkey TL1A produced by PBMCs in stimulated whole blood (cynomolgus monkey, UniProt G7PRK8 72-251)
T2 sequence: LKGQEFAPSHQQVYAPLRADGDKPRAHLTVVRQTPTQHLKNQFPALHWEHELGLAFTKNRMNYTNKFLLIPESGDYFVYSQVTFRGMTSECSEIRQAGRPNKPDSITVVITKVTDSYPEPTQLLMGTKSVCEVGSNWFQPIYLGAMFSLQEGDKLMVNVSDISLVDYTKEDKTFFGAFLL

T3: recombinant cynomolgus monkey TL1A protein (cynomolgus monkey, UniProt G7PRK8 72-251)
T3 sequence: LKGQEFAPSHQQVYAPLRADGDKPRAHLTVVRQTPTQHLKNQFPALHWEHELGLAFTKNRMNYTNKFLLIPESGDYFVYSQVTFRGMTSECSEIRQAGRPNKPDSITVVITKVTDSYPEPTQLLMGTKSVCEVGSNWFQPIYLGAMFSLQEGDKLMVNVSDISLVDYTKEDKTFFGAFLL

T4: recombinant mouse TL1A protein (mouse, UniProt Q5UBV8 76-252, limits assumed)
T4 construct: also called murine TL1A
T4 sequence (looked up): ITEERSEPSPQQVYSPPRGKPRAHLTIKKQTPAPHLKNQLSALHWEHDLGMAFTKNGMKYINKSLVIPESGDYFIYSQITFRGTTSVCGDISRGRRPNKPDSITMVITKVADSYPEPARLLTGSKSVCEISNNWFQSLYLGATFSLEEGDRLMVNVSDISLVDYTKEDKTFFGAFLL

T5: recombinant rat TL1A protein (rat, UniProt Q8K3Y7 76-252, limits assumed)
T5 sequence (looked up): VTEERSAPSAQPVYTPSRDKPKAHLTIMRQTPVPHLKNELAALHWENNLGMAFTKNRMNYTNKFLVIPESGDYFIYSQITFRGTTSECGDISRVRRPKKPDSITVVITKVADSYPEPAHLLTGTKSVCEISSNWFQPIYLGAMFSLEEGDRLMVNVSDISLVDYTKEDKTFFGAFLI

T6: membrane-bound human TL1A on TNFSF15/HEK293 cells (human, UniProt O95150 1-251)
T6 construct: whole, on cells; also called membrane-associated TL1A
T6 sequence (looked up): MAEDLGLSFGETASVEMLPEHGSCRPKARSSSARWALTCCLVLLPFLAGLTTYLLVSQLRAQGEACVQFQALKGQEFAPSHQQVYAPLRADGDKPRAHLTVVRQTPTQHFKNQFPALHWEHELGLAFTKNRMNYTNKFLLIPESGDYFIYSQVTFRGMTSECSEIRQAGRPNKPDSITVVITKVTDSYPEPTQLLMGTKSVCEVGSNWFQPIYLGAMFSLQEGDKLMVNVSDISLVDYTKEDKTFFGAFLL

T7: DR3 receptor on human TF-1 cells (human, UniProt Q93038 25-417)
T7 construct: whole, on cells; also called death receptor 3; TNFRSF25
T7 sequence (looked up): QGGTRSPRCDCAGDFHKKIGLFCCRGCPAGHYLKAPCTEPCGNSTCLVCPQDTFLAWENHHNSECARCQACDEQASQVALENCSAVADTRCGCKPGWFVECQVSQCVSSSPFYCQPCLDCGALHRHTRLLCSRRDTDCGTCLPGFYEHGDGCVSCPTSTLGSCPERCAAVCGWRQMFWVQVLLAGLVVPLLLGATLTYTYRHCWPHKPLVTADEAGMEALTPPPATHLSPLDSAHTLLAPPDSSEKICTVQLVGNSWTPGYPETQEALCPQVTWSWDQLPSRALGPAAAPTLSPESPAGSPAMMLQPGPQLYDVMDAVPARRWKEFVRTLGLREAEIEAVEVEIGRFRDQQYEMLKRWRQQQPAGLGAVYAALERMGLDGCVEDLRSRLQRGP

B1: recombinant human TL1A protein (ligand, UniProt O95150 72-251, looked up)
chain: LKGQEFAPSHQQVYAPLRADGDKPRAHLTVVRQTPTQHFKNQFPALHWEHELGLAFTKNRMNYTNKFLLIPESGDYFIYSQVTFRGMTSECSEIRQAGRPNKPDSITVVITKVTDSYPEPTQLLMGTKSVCEVGSNWFQPIYLGAMFSLQEGDKLMVNVSDISLVDYTKEDKTFFGAFLL
notes: also called tumor necrosis factor-like cytokine 1A; TNFSF15

Assays:
TNFSF10 (TRAIL) = TNFSF10 (TRAIL) (UniProt P50591 114-281, limits assumed); assay: ELISA
Chain of TNFSF10 (TRAIL) (P50591 114-281 limits assumed): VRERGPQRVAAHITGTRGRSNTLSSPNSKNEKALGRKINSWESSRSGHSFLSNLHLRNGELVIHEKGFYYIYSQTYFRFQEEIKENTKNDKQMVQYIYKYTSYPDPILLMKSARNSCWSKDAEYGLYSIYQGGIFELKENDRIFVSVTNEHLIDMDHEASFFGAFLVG

TNFSF14 (LIGHT) = TNFSF14 (LIGHT) (UniProt O43557 74-240, limits assumed); assay: ELISA
Chain of TNFSF14 (LIGHT) (O43557 74-240 limits assumed): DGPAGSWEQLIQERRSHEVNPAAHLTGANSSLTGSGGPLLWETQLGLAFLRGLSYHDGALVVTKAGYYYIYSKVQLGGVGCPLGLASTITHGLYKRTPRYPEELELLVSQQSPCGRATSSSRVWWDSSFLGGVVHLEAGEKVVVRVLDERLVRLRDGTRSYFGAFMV

TNFSF6 (FasL) = molecular target: T1, TNFSF6 (FasL); assay: ELISA
[1] = molecular target: T2, cynomolgus monkey TL1A produced by …; assay: cell-based or functional assay
[2] = molecular target: B1; assay: cell-based or functional assay
[3] = molecular target: T3, recombinant cynomolgus monkey TL1A …; assay: cell-based or functional assay
[4] = molecular target: T4, recombinant mouse TL1A protein; assay: ELISA on recombinant TL1A protein
[5] = molecular target: T5, recombinant rat TL1A protein; assay: ELISA on recombinant TL1A protein
[6] = molecular target: T3, recombinant cynomolgus monkey TL1A …; assay: ELISA, binding to recombinant TL1A protein
[7] = molecular target: B1; assay: surface plasmon resonance (SPR), recombinant TL1A protein
[8] = molecular target: T3, recombinant cynomolgus monkey TL1A …; assay: as above
[9] = molecular target: T6, membrane-bound human TL1A on …; assay: binding to TNFSF15/HEK293 cells that carry human TL1A, dose-dependent
[10] = molecular target: T7, DR3 receptor on human TF-1 cells; assay: TF-1 cell caspase activation assay

| Binder | binding result (TNFSF10 (TRAIL)) | binding result (TNFSF14 (LIGHT)) | binding result (TNFSF6 (FasL)) | inhibition of the IFN-gamma response in monkey whole blood (mean IC50) [1] | inhibition of TL1A-induced caspase activation in TF-1 cells (IC50) [2] [nM] | inhibition of TL1A-induced caspase activation in TF-1 cells (IC50) [3] [nM] | binding result [4] | binding result [5] | IC50 [6] [nM] | Kd [7] [nM] | Kd [8] [nM] | EC50 [9] [nM] | binding result [10] |
| --- | --- | --- | --- | --- | --- | --- | --- | --- | --- | --- | --- | --- | --- |
| anti-TL1A antibody A219 (antibody, V domains shown, Humanized monoclonal antibody; Molecular weight 143938 Daltons; The constant region is not tied to A219 in the readable text) VH: QVQLVQSGAEVKKPGASVKVSCKASGFDIQDTYMHWVKQRPGQGLEWMGRIDPASGHTKYDPKFQVRVTITRDTSTSTVYLELSSLRSEDTAVYYCARSGGLPDVWGQGTTVTVSS VL: EIVLTQSPGTLSLSPGERATLSCRASSSVSYMYWYQQKPGQAPRPLIYATSNLASGIPDRFSGSGSGTDFTLTISRLEPEDFAVYYCQQWEGNPRTFGGGTKLEIK | no binding | no binding | no binding | 1.54 nM and 289 ng/mL | 0.27 | 0.59 | no binding | no binding | 0.47 | 0.06 | 0.04 | 17.4 |  |
| B1 |  |  |  |  |  |  |  |  |  |  |  |  | binds |
